Series [1] concerns the molecule itself. As to the kind of experiment: FRET or BRET; homo-FRET among TMR dyes on C116 of different subunits, read by steady-state and time-resolved fluorescence anisotropy; detergent-solubilised protein, 6 µM (monomer based), 5 mM DDM, 200 mM KCl (also RbCl or NaCl), pH 3.5-7.0, 25 °C; D:P 0.05 to 0.60.
Series [2] concerns the molecule itself. The experiment in a line: SDS-PAGE; oligomeric status of the purified protein checked by SDS-PAGE (13.5%).

B1: C-terminal truncated (Δ125) TMR-labeled G116C W67 KcsA (domain or fragment, S. lividans, UniProt P0A334 1-124, looked up)
chain: MPPMLSGLLARLVKLLLGRHGSALHFRAAGAATVLLVIVLLAGSYLAVLAERGAPGAQLITYPRALWFSVETATTVGYGDLYPVTLFGRLVAVVVMVAGITSFGLVTAALATFFVCREQERRGH
modifications: tetramethylrhodamine-5-maleimide (TMR) conjugated to cysteine 116; D:P = 0.60
notes: KcsA potassium channel from S. lividans after removal of the C-terminal domain (amino acids 125–160) by chymotrypsin; W67 background with G116C; The limit 124 follows from the stated removal of amino acids 125–160; If the His tag stood at the C-terminus it would be lost with the cleaved fragment; also called truncated protein; proteolytically cleaved TMR-labeled G116C W67 KcsA
On to B1, for which the binding result in series [1] is given as “binds”.

B2: TMR-labeled G116C W26, 68, 87, 113F KcsA (full-length) (natural protein, S. lividans, UniProt P0A334 1-160, looked up)
chain: MPPMLSGLLARLVKLLLGRHGSALHFRAAGAATVLLVIVLLAGSYLAVLAERGAPGAQLITYPRALWFSVETATTVGYGDLYPVTLFGRLVAVVVMVAGITSFGLVTAALATFFVCREQERRGHFVRHSEKAAEEAYTRTTRALHERFDRLERMLDDNRR
modifications: tetramethylrhodamine-5-maleimide (TMR) conjugated to cysteine 116; final dye-to-protein molar ratio D:P 0.05 to 0.60, so not every subunit carries a dye
notes: KcsA potassium channel from S. lividans, full-length subunit, with four of the five Trp mutated to Phe (W67 left) and G116C for labelling; Homotetrameric channel; Plasmids pQE-60 and pQE-1 are named for G116C W67 and G116C WT; also called TMR-labeled G116C W67 KcsA; TMR conjugated G116C W67 KcsA; source: E. coli M15 (pRep4), purified (IMAC), labelled with tetramethylrhodamine-5-maleimide, …
Consider B2, for which the “stoichiometry N” value in series [2] stood at 4.
